The text below walks through data of PMC8464030.

Series [1] has as its target T1, DRH-3 full length (Caenorhabditis elegans, UniProt Q93413 1-1119).
T1 sequence: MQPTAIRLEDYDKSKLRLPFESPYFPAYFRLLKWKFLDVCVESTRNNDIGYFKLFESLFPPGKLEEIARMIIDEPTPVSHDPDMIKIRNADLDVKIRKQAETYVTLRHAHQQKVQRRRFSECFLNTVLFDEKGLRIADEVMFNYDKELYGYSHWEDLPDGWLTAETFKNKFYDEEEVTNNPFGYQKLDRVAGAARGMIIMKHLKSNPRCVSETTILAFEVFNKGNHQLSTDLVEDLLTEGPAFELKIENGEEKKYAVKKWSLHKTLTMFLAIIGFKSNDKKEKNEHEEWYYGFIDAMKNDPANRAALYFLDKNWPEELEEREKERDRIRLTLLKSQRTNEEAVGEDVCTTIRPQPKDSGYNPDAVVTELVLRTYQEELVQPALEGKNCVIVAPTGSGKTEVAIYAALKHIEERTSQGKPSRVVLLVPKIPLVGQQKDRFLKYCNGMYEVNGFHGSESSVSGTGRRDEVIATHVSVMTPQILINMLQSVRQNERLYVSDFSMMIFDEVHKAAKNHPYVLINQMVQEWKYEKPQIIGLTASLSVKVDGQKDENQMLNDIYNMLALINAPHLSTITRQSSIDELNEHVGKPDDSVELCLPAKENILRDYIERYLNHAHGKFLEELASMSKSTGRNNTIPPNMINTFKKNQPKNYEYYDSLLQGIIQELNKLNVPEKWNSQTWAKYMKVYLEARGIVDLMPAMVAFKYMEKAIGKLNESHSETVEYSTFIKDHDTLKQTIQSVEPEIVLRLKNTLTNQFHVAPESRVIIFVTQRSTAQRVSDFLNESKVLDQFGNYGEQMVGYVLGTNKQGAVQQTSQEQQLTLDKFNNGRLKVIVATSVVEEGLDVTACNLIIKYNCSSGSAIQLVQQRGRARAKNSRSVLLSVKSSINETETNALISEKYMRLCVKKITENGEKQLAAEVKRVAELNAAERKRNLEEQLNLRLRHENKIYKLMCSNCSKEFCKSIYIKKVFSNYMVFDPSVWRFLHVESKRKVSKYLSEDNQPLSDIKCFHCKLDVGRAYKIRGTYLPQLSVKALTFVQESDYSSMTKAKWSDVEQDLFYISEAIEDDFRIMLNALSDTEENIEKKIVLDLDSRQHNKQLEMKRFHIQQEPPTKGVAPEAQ
The series can be described thus: size-exclusion chromatography. Background: SEC sorts molecules by how far they enter the pores of the column.

Series [2] addresses T1, DRH-3 full length. The series can be described thus: size-exclusion chromatography. This is another data set of the same source.
The next series addresses T2, DRH-3 CTD (Caenorhabditis elegans, UniProt Q93413 940-1108).
T2 sequence: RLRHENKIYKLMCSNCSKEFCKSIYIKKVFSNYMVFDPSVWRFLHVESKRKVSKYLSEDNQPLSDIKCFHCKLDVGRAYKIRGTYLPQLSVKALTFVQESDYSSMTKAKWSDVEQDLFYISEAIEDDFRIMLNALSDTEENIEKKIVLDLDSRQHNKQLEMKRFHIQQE
In words: crystal structure.

In another series the target is T3, DRH-1 CTD (Caenorhabditis elegans, UniProt G5EDI8 877-1006).
T3 sequence: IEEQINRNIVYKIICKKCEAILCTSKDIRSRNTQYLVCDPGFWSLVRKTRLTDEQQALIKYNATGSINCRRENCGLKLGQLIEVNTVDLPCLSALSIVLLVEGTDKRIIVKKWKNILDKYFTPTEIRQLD
The series can be described thus: limited proteolysis.

In another series the target is T4, RIG-I CTD (human, UniProt O95786 802-925).
T4 sequence: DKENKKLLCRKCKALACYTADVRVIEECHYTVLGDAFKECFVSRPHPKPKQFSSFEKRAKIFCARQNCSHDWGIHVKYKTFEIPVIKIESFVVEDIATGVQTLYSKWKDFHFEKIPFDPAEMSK
The series can be described thus: limited proteolysis.

For series [3], the target named is T1, DRH-3 full length. In words: HDX-MS.

B1: GC30 (30-bp dsRNA) (dsRNA)
RNA 1: GGCGCGCGCGCGCGCGCGCGCGCGCGCGCGCC
RNA 2: GGCGCGCGCGCGCGCGCGCGCGCGCGCGCGCC
modifications: 5'-triphosphate on both strands
Take B1: the binding result with DRH-3 full length [1] was “binds”.

B2: Hairpin 30 (structured_RNA)
RNA: GGACGUACGUACGUGCACGUACGUACGUGCUUCGGCACGUACGUACGUGCACGUACGUACGUCC
modifications: 5'-triphosphate
B2: the binding result with DRH-3 full length [2] is listed as “binds”.
For the molecule GGCCGCCC (ssRNA, 5'-triphosphate) [8-nt ssRNA], the binding result in the series with DRH-3 CTD is “binds”.

B3: R1 / 12-mer 5'-ppp dsRNA (dsRNA)
RNA 1: GGCGCGCGCGCC
RNA 2: GGCGCGCGCGCC
modifications: 5'-triphosphate on both strands
In the case of B3, the binding result with DRH-1 CTD, with RIG-I CTD and with DRH-3 CTD was “binds” in each case.
Regarding GGACGUACGUUUCGACGUACGUCC (structured_RNA, 5'-triphosphate) [3p10L (SLR10)], the binding result in the series with DRH-3 full length [3] was “binds”.
